{"source": "patent US8470574B2", "about": "“L-succinylaminoacylase and process for producing L-amino acid using it” (Toyo Boseki Kabushiki Kaisha, priority 2008, dated 2013)", "molecules": {"B1": {"name": "L-succinylaminoacylase: L-succinylaminoacylase of NCA 1503 strain of Geobacillus stearothermophilus; amino acid sequence SEQ ID No: 2, expressed in Escherichia coli JM 109 (pLSA1) (protein, listed as Geobacillus stearothermophilus)", "chain": "MKEIVEQMKAELWEVFDHLHRHPEISWEEWQTTEFLRRELEREGYRVRTFADCPGVVAEIGAGPFTVGVRSDMDALWQEVNGVWQPNHACGHDAHMTIVLGVAKLLRRIGYEPPGTLRFLFQPAEEKGTGALKLIEKGAVDGVSFLYGVHLRPIQEVKGGYAAPAIIHGAAQCIEGRIRGVAAHAARPHLGVNVIEVGSAIVQELGKIHIDPQVPASIKMTKFHAGEKDANTIPGYAEFALDLRAQTNEAMERLVEGLRHVINGVAAIYGAEIELVERTRIVAAHPDPDAVRLMEEAIIAALGTEKCVPPVVTSGGEDFHFYSFQKPELKTTMLGLGCDLRPGLHHPNMTFRRDDLLSGVEILARTVINTFALQGENERVSVAANH"}, "B2": {"name": "porcine kidney Acylase I: commercially available L-aminoacylase (Sigma, code No. A3010-100MG) (protein, UniProt P37111 2-407, looked up)", "Aminoacylase-1": "ASKGREGEHPSVTLFRQYLRIRTVQPEPDYGAAVAFLEERARQLGLGCQKVEVVPGHVVTVLTWPGTNPTLSSILLNSHTDVVPVFKEHWSHDPFEGFKDADGYIYGRGAQDMKCVSIQYLEAVRRLKVEGHHFPRTIHMTFVPDEEVGGHQGMELFVKRPEFQALRAGFALDEGLASPTDAFTVFYSERSPWWLRVTSTGKPGHGSRFIEDTAAEKLHKVINSILAFREKEKQRLQSNQLKPGAVTSVNLTMLEGGVAYNVVPATMSACFDFRVAPDVDLKAFEEQLQSWCQAAGEGVTFEFVQKWMETQVTSTDDSDPWWAAFSGVFKDMKLALELEICPASTDARYIRAAGVPALGFSPMNHTPVLLHDHDERLHEAVFLRGVDIYTQLLSALASVPALPSES"}, "B3": {"name": "N-succinylamino acid racemase: N-succinylamino acid racemase (gene SEQ ID No: 3) derived from Geobacillus stearothermophilus NCA 1503 strain, per JP-A No. 2008-61642 (protein, listed as Geobacillus stearothermophilus)", "chain": "MAINIEYVILRHLQMELKAPFTTSFGTFQRKELILVEVVDRDGVSGWGESVAFSAPWYSEETVKTNWHMLEDFLVPLALAEPIHHPEELSKRFSAIRQNNMAKAALEGAVWDLYAKRLGVPLSQALGGAKKDIEVGVSIGIQPTVADLLQVIERYVAQGYRRIKVKIKPSWDVDVIREVRRVFPDVPLMADANSAYTLVDADRLKALDEFGLLMIEQPLAADDLVDHARLQPLLQTPICLDESIRSYDDARKALDLGSCRIINIKIGRVGGLGEAKRIHDLCAERGAPVWCGGMLEAGVGRAHNIAITTLENFTLPGDTAASSHYWERDIITPEVEVHGGLIRVPDAPGIGYDVDRRQVERYTQFAKVFHRTATA", "modifications": "CDS (1)..(1128)"}}, "key": {"[1]": {"test": "Synthesis of L-tert-leucine from N-succinyl-L-tert-leucine, TLC with ninhydrin detection (Examples 2, 3)", "type": "biochemical", "conditions": "57° C., 6 hours, CoCl2, HEPES pH 7.9", "method": "The above-mentioned 1 M HEPES (2.0 mL), 10 mM CoCl2 solution (0.1 mL) and 150 mM N-succinyl-L-tert-leucine (1.0 mL) were mixed with water (6.4 mL) to give a reaction reagent.\n(§1) The L-succinylaminoacylase (2.3 mg/mL, 0.5 mL) prepared in Example 1 was added to the reaction reagent (9.5 mL) containing the above N-succinyl-L-tert-leucine and, after the above was gently stirred, the reaction was conducted at 57° C. for 6 hours. As a control test, the same reaction was conducted by adding 50 mM K-phosphate buffer (pH 7.5) to the reagent mixture in place of the L-succinylaminoacylase solution. […]\n(§2) N-Succinyl-L-valine, N-succinyl-L-phenylalanine, N-succinyl-L-tryptophan, N-succinyl-L-asparagine, N-succinyl-L-aspartic acid, N-succinyl-L-serine, N-succinyl-L-glutamic acid, N-succinyl-L-tert-leucine, N-succinyl-L-cyclohexylglycine or N-succinyl-L-4-bromophenylalanine is used as an N-succinyl-L-amino acid and a reaction reagent was prepared according to the method for the case of N-succinyl-L-tert-leucine. L-succinylaminoacylase of Example 1 was made to react using the resulting reaction reagent to synthesize an L-amino acid and the L-amino acid was directly detected by the same manner as in Example 2."}, "[2]": {"test": "Synthesis of L-valine from N-succinyl-L-valine, TLC detection (Example 3)", "type": "biochemical", "conditions": "TLC ninhydrin, as Example 2", "method": "(§3) The reaction reagent containing the N-succinyl-L-amino acid as such was prepared by the same method as in the preparation of a reaction reagent containing N-succinyl-L-tert-leucine mentioned in (1).\nas §1, §2"}, "[3]": {"test": "Synthesis of L-phenylalanine from N-succinyl-L-phenylalanine, TLC detection (Example 3)", "type": "biochemical", "conditions": "TLC ninhydrin, as Example 2", "method": "as §3, §1, §2"}, "[4]": {"test": "Synthesis of L-tryptophan from N-succinyl-L-tryptophan, TLC detection (Example 3)", "type": "biochemical", "conditions": "TLC ninhydrin, as Example 2", "method": "as §3, §1, §2"}, "[5]": {"test": "Synthesis of L-asparagine from N-succinyl-L-asparagine, TLC detection (Example 3)", "type": "biochemical", "conditions": "TLC ninhydrin, as Example 2", "method": "as §3, §1, §2"}, "[6]": {"test": "Synthesis of L-aspartic acid from N-succinyl-L-aspartic acid, TLC detection (Example 3)", "type": "biochemical", "conditions": "TLC ninhydrin, as Example 2", "method": "as §3, §1, §2"}, "[7]": {"test": "Synthesis of L-serine from N-succinyl-L-serine, TLC detection (Example 3)", "type": "biochemical", "conditions": "TLC ninhydrin, as Example 2", "method": "as §3, §1, §2"}, "[8]": {"test": "Synthesis of L-glutamic acid from N-succinyl-L-glutamic acid, TLC detection (Example 3)", "type": "biochemical", "conditions": "TLC ninhydrin, as Example 2", "method": "as §3, §1, §2"}, "[9]": {"test": "Synthesis of L-cyclohexylglycine from N-succinyl-L-cyclohexylglycine, TLC detection (Example 3)", "type": "biochemical", "conditions": "TLC ninhydrin, as Example 2", "method": "as §3, §1, §2"}, "[10]": {"test": "Synthesis of L-4-bromophenylalanine from N-succinyl-L-4-bromophenylalanine, TLC detection (Example 3)", "type": "biochemical", "conditions": "TLC ninhydrin, as Example 2", "method": "as §3, §1, §2"}, "[11]": {"test": "Conversion of N-succinyl-L-tert-leucine to L-tert-leucine, HPLC (Example 4)", "type": "biochemical", "conditions": "1 wt % N-succinyl-L-tert-leucine, pH 7 to 8, 1 mM CoCl2, 57° C., up to 90 hours", "method": "(§4) An L-succinylaminoacylase solution (1 mL; 2.3 mg/mL) was added to a 1 wt % solution of N-succinyl-L-tert-leucine (pH 7 to 8; 10 mL; containing 1 mM of CoCl2) and made to react at 57° C. for 90 hours with stirring to give L-tert-leucine. The sample was collected after 16 hours, 42 hours, 65 hours and 90 hours from the start of the reaction and subjected to an HPLC measurement under the following condition to confirm the peaks of succinyl-form compound and free-form compound whereby the synthesis of L-tert-leucine from N-succinyl-L-tert-leucine was confirmed.\nColumn: Inertsil ODS-2 (particle size: 5 μm; 4.6 mm inner diameter×250 mm length) manufactured by GL Science\nEluant: aqueous solution of phosphate (pH 2.3)/acetonitrile for HPLC=80:20\nColumn temperature: 40° C."}, "[12]": {"test": "Conversion of N-succinyl-DL-tert-leucine to L-tert-leucine, HPLC (Example 5)", "type": "biochemical", "conditions": "1 wt % N-succinyl-DL-tert-leucine, pH 7 to 8, 1 mM CoCl2, 57° C., 90 hours, theoretically highest yield 50%", "method": "as §4, with “N-succinyl-DL-tert-leucine” for “N-succinyl-L-tert-leucine”, “finishing” for “16 hours, 42 hours, 65 hours and 90 hours from the start of”, “the” for “the following”, “condition same as the Example 4” for “condition”, “confirmed. As a result, the yield was 45% or more and the value near 50% which is the theoretically highest yield was achieved.” for “confirmed.”"}, "[13]": {"test": "Conversion of N-succinyl-DL-tert-leucine to L-tert-leucine with N-succinylamino acid racemase, HPLC (Example 6)", "type": "biochemical", "conditions": "used together with N-succinylamino acid racemase, 1 wt % N-succinyl-DL-tert-leucine, 1 mM CoCl2, 57° C., up to 90 hours", "method": "An L-succinylaminoacylase solution (1 mL; 2.3 mg/mL) prepared in Example 1 and the above N-succinylamino acid racemase (0.1 mL; 10.5 mg/mL) were added to a 1 wt % solution of N-succinyl-DL-tert-leucine (pH 7 to 8; 10 mL; containing 1 mM of CoCl2) and made to react at 57° C. for 90 hours with stirring to synthesize L-tert-leucine. The sample was collected after 24 hours and 90 hours from the start of the reaction and subjected to an HPLC measurement under the condition same as Example 4 to confirm the peaks of succinyl-form compound and free-form compound whereby the synthesis of L-tert-leucine from N-succinyl-DL-tert-leucine was confirmed."}, "[14]": {"test": "Activity to N-succinylamino acid compared with N-acetylamino acid", "type": "biochemical"}, "[15]": {"test": "Temperature stability of the enzyme", "type": "physicochemical", "conditions": "heating treatment for 30 minutes"}, "Optimum pH of the enzyme": {"test": "Optimum pH of the enzyme", "type": "biochemical", "conditions": "reaction at 60° C. for 30 minutes"}, "[16]": {"test": "Effect of metal ion on L-succinylaminoacylase activity", "type": "biochemical", "conditions": "metal ion Co2+ versus Zn2+"}, "[17]": {"test": "Ability of commercially available L-aminoacylase to synthesize L-tert-leucine, TLC (Comparative Example)", "type": "biochemical", "conditions": "2,600 U/mL enzyme solution, 25° C., 12 hours; TLC ninhydrin", "method": "Acylase AMANO (Sigma, code No. 01818-5G) and porcine kidney Acylase I (Sigma, code No. A3010-100MG) were dissolved in 50 mM K-phosphate buffer (pH 7.5) so as to make each of them 2,600 U/mL to give an L-aminoacylase solution.\nThe above-mentioned 1 M HEPES (2.0 mL), 10 mM CoCl2 solution (0.1 mL) and 150 mM N-acetyl-L-tert-leucine (1.0 mL) were mixed with water (6.4 mL) to give a reaction reagent.\nThe above commercially available L-aminoacylase (Comparative Example 2) (0.5 mL) was added to the reaction reagent (9.5 mL) containing the above N-acetyl-L-tert-leucine and, after the above was gently stirred, the reaction was conducted at 25° C. for 12 hours. As a control test, the same reaction was conducted by adding 50 mM K-phosphate buffer (pH 7.5) to the reagent mixture in place of the L-aminoacylase solution. After the enzymatic reaction, the L-amino acid was directly detected by TLC and ninhydrin reaction by the same manner as in Example 2."}, "[18]": {"test": "Effect of metal ion on N-succinylamino acid racemase activity", "type": "biochemical", "conditions": "final concentration of 0.1 mM to 1 M"}}, "note": "“Also recorded” adds a separate entry of the source.", "data": [{"molecule": "B1", "values": [{"measurement": "ability to produce L-tert-leucine from N-succinyl-L-tert-leucine", "setting": "[1]", "value": "able to produce the L-tert-leucine; also recorded: able to synthesize the corresponding L-amino acid; also recorded: reacts"}, {"measurement": "ability to synthesize L-valine from N-succinyl-L-valine", "setting": "[2]", "value": "able to synthesize the corresponding L-amino acid"}, {"measurement": "ability to synthesize L-phenylalanine from N-succinyl-L-phenylalanine", "setting": "[3]", "value": "able to synthesize the corresponding L-amino acid"}, {"measurement": "ability to synthesize L-tryptophan from N-succinyl-L-tryptophan", "setting": "[4]", "value": "able to synthesize the corresponding L-amino acid"}, {"measurement": "ability to synthesize L-asparagine from N-succinyl-L-asparagine", "setting": "[5]", "value": "able to synthesize the corresponding L-amino acid"}, {"measurement": "ability to synthesize L-aspartic acid from N-succinyl-L-aspartic acid", "setting": "[6]", "value": "able to synthesize the corresponding L-amino acid"}, {"measurement": "ability to synthesize L-serine from N-succinyl-L-serine", "setting": "[7]", "value": "able to synthesize the corresponding L-amino acid"}, {"measurement": "ability to synthesize L-glutamic acid from N-succinyl-L-glutamic acid", "setting": "[8]", "value": "able to synthesize the corresponding L-amino acid"}, {"measurement": "ability to synthesize L-cyclohexylglycine from N-succinyl-L-cyclohexylglycine", "setting": "[9]", "value": "able to synthesize the corresponding L-amino acid; also recorded: reacts"}, {"measurement": "ability to synthesize L-4-bromophenylalanine from N-succinyl-L-4-bromophenylalanine", "setting": "[10]", "value": "able to synthesize the corresponding L-amino acid; also recorded: reacts"}, {"measurement": "yield (conversion rate into L-tert-leucine)", "setting": "[11]", "value": "≥ 90", "unit": "%"}, {"measurement": "yield of L-tert-leucine", "setting": "[12]", "value": "≥ 45", "unit": "%"}, {"measurement": "yield (conversion rate into L-tert-leucine)", "setting": "[13]", "value": "about 85%"}, {"measurement": "activity to N-succinylamino acid relative to N-acetylamino acid", "setting": "[14]", "value": "at least 100 fold"}, {"measurement": "Temperature stability: temperature at which inactivated", "setting": "[15]", "value": "≥ 75", "unit": "°C"}, {"measurement": "Temperature stability: temperature at which stable", "setting": "[15]", "value": 70, "unit": "°C"}, {"measurement": "Optimum pH", "setting": "Optimum pH of the enzyme", "value": 7}, {"measurement": "activity increase with Co2+ as compared with Zn2+", "setting": "[16]", "value": "twice or more"}]}, {"molecule": "B2", "values": [{"measurement": "ability to synthesize L-tert-leucine from N-acetyl-L-tert-leucine", "setting": "[17]", "value": "unable to synthesize L-tert-leucine"}]}, {"molecule": "B3", "values": [{"measurement": "relative activity with Co2+ as compared with Mn2+", "setting": "[18]", "value": "twice or more higher"}]}]}
